Measured values from the supplement of paper PMC9170038.

System: MS2 coat protein
Test: apparent KD of MS2 coat protein; designed switch direction (-1 OFF switch, 1 ON switch): -1; higher = weaker reporter binding
Summary of the method: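 On Illumina chips, designed RNA switches with common flanks were made by stalled E. coli RNA polymerase. Titrations with SNAP-549-labelled MS2 coat protein, doubling from 0.7 or 1.5 nM to 3 µM, were done with no input, with 200 uM small-molecule ligand, or with an oligonucleotide input. Apparent KD is the median per design over clusters, from curve fits of normalised cluster fluorescence.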

[1] = Eterna round: R95, input ligand: FMN 200 uM
[2] = Eterna round: R95, input ligand: microRNA oligo, concentration not stated
[3] = Eterna round: R95, input ligand: none
[4] = input ligand: microRNA oligo, concentration not stated

Sequence	apparent KD of MS2 coat protein [1] [nM]	apparent KD of MS2 coat protein [2] [nM]	apparent KD of MS2 coat protein [3] [nM]	apparent KD of MS2 coat protein (input ligand: FMN 200 uM) [nM]	apparent KD of MS2 coat protein (input ligand: none) [nM]	apparent KD of MS2 coat protein [4] [nM]
UUUUUAUUUUUUUAUUUUGACAUGAGGAUCACCCAUGUAACGAGCAGAUCUUCAUGCAAGCUUUUUGCUCGUCUUAU [Sensor v3 - Turn-off variant 1 - 41] (puzzle: Sensor v3, turn-off variant 1)	69.1	15.5	95.6			
UAAAAGCUAGGAUAUACAUGAGGAUCACCCAUGUAUUAGGGCAUGAAAUCGGUCCCACGUAGAAGGAGCGACAC [Dilaxeed] (Eterna round: R97, puzzle: Exclusion 3)				105	24.5	
CGUAAAAGGUAGGAUAUGCUAGACGAAAGUCUAGCAGAAGGACCUACAUGAGGAUCACCCAUGUGUCCAAUACG [Mat - Exclusion 6 - Eli Mod - D22] (Eterna round: R97, puzzle: Exclusion 6)				50.7	117	
CUAGUGUAAGGAUAUGCCUGGCCGUGAGGCCAGAUUGAAUAGCAGAAGGUACAUGAGGAUCACCCAUGUACGGG [jl-ex4-4.62 ViennaUCT mod] (Eterna round: R97, puzzle: Exclusion 4)				279	26.4	
CUGCUCCGUGUAGGAUAUGCAUACUCCCACUAUGCAGAAGGACAUGAGGAUCACCCAUGUAUGUUAUUAUCACGUGUAGCGUCC [Design 17] (Eterna round: R96, puzzle: Exclusion NG 1)				21.1	21.4	14.2
UUGUUGUAUGUAGGAUAUGCAUGUUAUUAUUAUGCAGAAGGACAUGAGGAUCACCCAUGUGUAUUAUUAUUAUAUAUUAUAUAU [Title] (Eterna round: R96, puzzle: Exclusion NG 1)						15.4
ACCUCUACGCUUUCCAAGGGUAGACCUGGUGUUUGUCACACAUGAGGAUCACCCAUGUGCACUGUGCGAGUCGAACA [solution 38] (Eterna round: R96, puzzle: Sensor v2, turn-off variant 2)				49.5	50.6	40.2
CCGGAAAUACAGGAUAUAGGAGUCAAUAGACUCCUAGAAGGGUAUACAUGAGGAUCACCCAUGUGUCCUACCGG [Fiskers Ex 6 - 66] (puzzle: Exclusion 6)		25.1				
UAGGUGUGAGGAUAUGGUAAAGAUAAGAUGAUGAAAGAACUCCAGAAGGCACAUGAGGAUCACCCAUGUAGAAG [Mat - Exclusion 4 - Mod of JL - D30] (puzzle: Exclusion 4)	27.9	22.8	24.7			
CACCGUUACACAGGAUAUCUUACAUGAGGAUCACCCAUGUAAUAAAUGAGAAUUUCGAAUGUAAAAGAGAAGGGUGGAAUCGGC [Ostracism 66 - Jieux - Exclusion NG 2] (Eterna round: R96, puzzle: Exclusion NG 2)				73.1	30.3	21.8
AAAAUAAAGGCAGGAUAUCGGAGGCGCUGGCACCGAGAAGGGCCAGGGUGUCGUCAAAACAUGAGGAUCACCCAUGUGAGUGAC [Maanated] (Eterna round: R96, puzzle: Exclusion NG 1)				17.6	23	12.7
ACAAGCUUAAAAAUCCUAAACAUGAGGAUCACCCAUGUUCGUCUUAUAAAAAUAAAAAUAAAAAAUAAAAAAUAAAA [Sensor V2: 70] (Eterna round: R96, puzzle: Sensor v2, turn-off variant)				49.1	51.9	228
ACAAGCUUAAUCAGUAUGAACAUGAGGAUCACCCAUGUAAAAGGGAAGACAAUUGGGUUAUUUAAAGCUCGUCUUAU [JR_STOV1_Sub016] (Eterna round: R97, puzzle: Sensor, turn-off variant 1)				57.6	67.2	
CUUUCGUGAGGAUAUCAGUAGUAAAUAAAUAAAAUUACUACUGAGAAGGCACAUGAGGAUCACCCAUGUUCCUU [salish99_ex3_r3_095] (puzzle: Exclusion 4)		12.9				
